Measured values published in the domain aggregation screens of Martell et al. (2025).

Assay: soluble fraction after stress (log2 fold change); higher = more stays soluble; pooled small domains, quantitative proteomics
Details: stress: pH 4
Procedure, shortened: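 After pH 4 stress, pooled custom libraries of small protein domains were quantified with high-throughput quantitative proteomics. Aggregation propensity is taken from the fold change in each domain's soluble amount following the acid stress. The scale is log2, where higher values mean more stayed soluble.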

In the case of “HMNILNFSENIIKLRHKKGITQEELADFVGVTKASVSKWETKQSLPDIMLLPRLAAYFDVTVDELLGYEP”, the “soluble fraction (log2)” value is reported as -0.115.

With “HMNINHEINIKSKKKISILENNPNLSQFYLTKNPDQYNYNLVFSDKSELNKLKEKLESDNEVEDIDIRYG” the “soluble fraction (log2)” value was -0.195.

With “HMNINTEMEKVSYSLGVNIASSLKQQGWELDAKSLSDAFVDVFNGNKLLIDEKEASSILQNYQQKIANK” the “soluble fraction (log2)” value was -1.1.

With “HMNIQKYFAGREQFIELLEAVGIRTLEQFASADPSTVLPELHQAKRMLKLQTEIPSAPVFREWVNQALS” the “soluble fraction (log2)” value was -0.901.

With “HMNIQPAMLNAANGGVAWKERGISMSQIMKRNAHTAEGSQKLWDYAFENFFQKNIDAGNIRDDR” the “soluble fraction (log2)” value was -0.237.

For “HMNIVKGDTTANVRVVQQRLYNLGYYTYKVDGIWGTRTKTAVKKFQKDKGLVADGIVGAKTEKALGITLT”, the “soluble fraction (log2)” value was -0.252.

For “HMNIVVSSIDSNSFEIVNKETGEQAVISYDKETKKGFVLINGVKKEFFQDGNKVYYDGYVIAE”, the “soluble fraction (log2)” value was -0.466.

With “HMNKDEFLNELKSYLSILEDEEQADILEEYTQHIDMKISTGLSEAEAIRDFGNVSELAAQILEAY” the “soluble fraction (log2)” value was -0.343.

For “HMNKIGTIVSINGPIVKTAGDVGFVMHEMVYVGKEKLVGEVIGLTTDFTIVEVYEETSGIKPGETIEGT”, the “soluble fraction (log2)” value was 0.00293.

With “HMNKKEIISVLEKIIPPSQIKNINIFGSELVIDLNIDNPSLHAKKKLEKSIMSSFDENLKIIVNFSVE” the “soluble fraction (log2)” value was 0.22.

For “HMNKLSISALAETVSTKRKEKSMTQQDLSDATGINRALISRLEQKDFIPSIPQLEKLEEILGFELEEVF”, the “soluble fraction (log2)” value was -0.998.

With “HMNKMHKLPSVSEILNKVRLQKIHNESFIKFKIKEEIDRYRKLAKKDQLFLSRDEITYEIIEKLLNFSMPS” the “soluble fraction (log2)” value was -0.771.

With “HMNKMIDAPDLTGLSLEDAKLVLEANKLQLGTVSHEPSDKPEDVVISQDPMEGQEIQQGGKVNLVVSYGD” the “soluble fraction (log2)” value was -0.104.

In the case of “HMNKNNLRNVSSKIRKSRRVLNLSQAELSKKLDISPSYLNLIESGKRPITVPLLIKLGNILGISLKDL”, the “soluble fraction (log2)” value is reported as 0.201.

With “HMNKNQIGTNAGIVWKLLSDNVHWEYDKLKHASGLSDRDLNAAIGWLAREDKIDFDIDEQHDRLFL” the “soluble fraction (log2)” value was -0.255.

With “HMNKPKIIINSVDDSVFSDYVKDSLSIAEVARSIGIDNNKINTSVYREIHKRIDSLKLDTSHFTGGAWN” the “soluble fraction (log2)” value was -0.634.

For “HMNKPLFVYPNPVHQGKINLSKATNFMVVDLLGQTVNKTNYGKDFSIDNLPNGVYFIKTTEGEIIKFMK”, the “soluble fraction (log2)” value was -0.496.

With “HMNKQEFLNTLRIIFKKANVLDVESIIDVYEEHFAVGYEKGLNDEQIIKSLGTPKEIYTSYVEAGI” the “soluble fraction (log2)” value was -1.16.

For “HMNKSGVVLIRVTVDASGRVTSAAYEPKGSTTSDVELVAEARKAALRTRFTESRTVIEGGVITYIFKL”, the “soluble fraction (log2)” value was -0.0968.

With “HMNKSYTVPDVRGMTVEEAQEAEGVKDIFTVHVQGTRKTDEYQPGQIVEQDPIAGRTRKSNFVIEVYVAE” the “soluble fraction (log2)” value was -0.237.

For “HMNKTQLQIEDEVLKPLIAEIFSKSKGRFGARKIRSKLMGLGYTASERRILRLMKELGLSSAG”, the “soluble fraction (log2)” value was no less than 0.43.

For “HMNKTVKIPNVSNLSREDAESVLKENGISVNSEVKQIESDTIEKGKVVKTDPSIGTSVKKGRSITIYVSSG”, the “soluble fraction (log2)” value was 0.134.

With “HMNKWMQLASEEDKKLFNEAPKEIQDSITESAKFFDIRTKADVDTFWANTGLRQMKQQAMLNESFVNEY” the “soluble fraction (log2)” value was -0.482.

For “HMNLDMVINKIGIVTEDIKQDKIGEVKVLGKRWSAYSNTELKKDEKVKILSIDGVKLKVEKI”, the “soluble fraction (log2)” value was 0.413.

With “HMNLGAHVYWRNHRAYGDFREYEDVGGGREALALPGSTWGTKDPRVAQALFAARLTEFQEARVGR” the “soluble fraction (log2)” value was -0.148.

For “HMNLGVIYSLKAEVRSEPNTFSTRLFEVHEGLKVSINQLENDWVEIELLDGKTGWISNDQIRLI”, the “soluble fraction (log2)” value was -0.772.

In the case of “HMNLIFFSENLSTFRKEKGWTQSELAEKLGVKANTISNYEKGISTPDYKIIAKLRELFEMPTDVLLYSNLS”, the “soluble fraction (log2)” value is reported as -0.97.

For “HMNLLDYDFFEKMSSKEQEEIVEKVYIDFLNKSTGTNSPFYLKLFEKGKKSYIVNWLNENNF”, the “soluble fraction (log2)” value was -1.06.

In the case of “HMNLLSPREKQSLTLYASGLTLREVASELKLSPNSVGKFISRGKFKLNKSGAIVNSKTSIYLELKKRNLI”, the “soluble fraction (log2)” value is reported as 0.108.

In the case of “HMNLNESVELGQELLSQALAQLGIRGELSPSTIDKLLAESSAKSMEELYADIGIGKRMPALVARHIFGLMD”, the “soluble fraction (log2)” value is reported as -0.491.

For “HMNLQAYQSVLDKLNEEYGTTFRFPTEEELHEVGLTNTVDPRTATVSATEFEKYMRPIAERISQANL”, the “soluble fraction (log2)” value was -0.315.

With “HMNLSAREWTSADGSRTFQGELTGFQDGKVKVRRSDGKSLVFAIELLSESDQQFIKTNQLVIAKKDED” the “soluble fraction (log2)” value was -0.752.

For “HMNLYHALDQQGEVYLTIPPRQSGRGKVTLMIDGRVREMDAMTDGDALKTGSKVRVTEILDENALKVEAM”, the “soluble fraction (log2)” value was -0.0493.

In the case of “HMNMAEETLDTAAKILKAAEEEFMEKGYGNAKMMSIAARAGVSHSMLHYYYRSKGKLFQMIFDEKA”, the “soluble fraction (log2)” value is reported as -1.06.

With “HMNMAEQGISLDSEAGKARFVSQALPLLKQLPDGVFKQRMLNQLADRVEVTADFIAQQLAQLKAA” the “soluble fraction (log2)” value was -0.266.

For “HMNMAVELEDGTQIFVFSEDGEFAGKRAVIADEEGRPTEENAPAGTHTLRDGRSIVVGEGGVIESVVET”, the “soluble fraction (log2)” value was -0.708.

For “HMNMEYQKAINHIVQMVKDGQLIVGSKIPSERDLSESLGIGRNSTREAISILRGMGLVESRHGSGNYIAKD”, the “soluble fraction (log2)” value was 0.22.

In the case of “HMNMGEKIRSLIGQFGVTSEDLKNLSVANLLIRMNQEAGDSKTKGILASLLETVNKAGVGNLTPDALGIK”, the “soluble fraction (log2)” value is reported as 0.064.

For “HMNMLGEQVRNIRKSRGFTLKALAEQTGLSIGYISQIERNLTDPSLSTLRKISAALDVPTYLFMG”, the “soluble fraction (log2)” value was 0.0605.

With “HMNMLGSNIKYLRNRHKLSQQELSEKLGVPRSSLSDYERGHTQVGLDSLIKLADIFDVKIDDLLRSNLSHR” the “soluble fraction (log2)” value was -0.261.

With “HMNMPHEIDANFISSLGRLIDNHGKNYGDFQIFREMFLDYFPRFDELSSNNKEKINRRLYKFFETLFG” the “soluble fraction (log2)” value was -1.44.

In the case of “HMNMVEESVKKSSQWAVFEPNTISTWVKIQAMIENYLYQKWKEGALAGAKPEHAFFVKVGLGETM”, the “soluble fraction (log2)” value is reported as 0.0622.

For “HMNNEISINGNKIYFNKNISKVFIYDISGKLIKHKNNFNNNFIDLSEFNSAFYIIKALDINENYTTKKIFL”, the “soluble fraction (log2)” value was -0.597.

In the case of “HMNNFTPEHLEKDIEGSLFFRRLKETAREEPGSLTVAQKDFIQMWHDQADGVYTLRQVFVQTAFDHVRSL”, the “soluble fraction (log2)” value is reported as 0.22.

In the case of “HMNNFTQSALDTIDGIGKRRKKLLLNHFGSVKLIENASIEDIKKIDGISDLVANKIYNFFNKN”, the “soluble fraction (log2)” value is reported as -0.173.

For “HMNNGAEIGAEIRSLRKARGLTLEDLAAKIGRSVGYISQVERGISPLTIPNLKAIAEVLGVGINWFFRGEA”, the “soluble fraction (log2)” value was 0.228.

In the case of “HMNNILNYTIAELMEILKIDDLETENVINSSNNLINKSINENNFPLAEFYEDVKNNLIEFIETFDS”, the “soluble fraction (log2)” value is reported as -1.08.

In the case of “HMNNLELSEEEKSVLTIIEKEGLIELDKLKTKLELSNKKWDKTLKFLTKNKLAKVVKNDNGLFVEL”, the “soluble fraction (log2)” value is reported as 0.0993.

For “HMNNLLEDIKARLMAQAEAGGHIDTETELAEHFGVTRYRIRKELDLLSQMGLLRRQPKNGIEVLTV”, the “soluble fraction (log2)” value was 0.22.

In the case of “HMNNLNDIIEIIRIYAKNYARNNPSWNHSELINRIRDKALGEAEDYNIRLSEEDLALITELSLRGL”, the “soluble fraction (log2)” value is reported as -1.24.

With “HMNNMVNTLLKLLAEQDVLRGIVRRFTPSSVFVFLQNEEVEVELPLQGRSLAPGQLVELTQEGASVALKRL” the “soluble fraction (log2)” value was -0.679.

For “HMNNPLLDKVYQLMKQNNITEEEIVRAVAMKGYFPDDMKLGDYPDDFIDGVLIGAWDQIKQFIINNISPFK”, the “soluble fraction (log2)” value was -0.359.

In the case of “HMNNSDIDITVGKNSISINNPNRTNIIIYSSNGMLIDSSKNASYKRNLPSGIYIVKSGSSTHKVIV”, the “soluble fraction (log2)” value is reported as no less than 0.43.

In the case of “HMNNTIKFFVSQDDDSTRLDVFLSKKIENLTRSNIKKFINLNNVKINKATINSPSKKVKLYDEIEIKFSS”, the “soluble fraction (log2)” value is reported as -1.19.

With “HMNNTIKFSVDSQNSGKRLDIFLTENIKNYTRSFLKKLIENRQVKLNNNFIISPSERVKFKDQININILQ” the “soluble fraction (log2)” value was 0.199.

In the case of “HMNNVDIMGRMVYDDQHREVINFGKYKGVLVTEVLKKDPGYFSWIQQGDFPSDMKRIMMAIKLRM”, the “soluble fraction (log2)” value is reported as -0.72.

In the case of “HMNNVDQLIEQYKTLPGGLLPLLHAIKHALGYIPESTVGSIAKGFNLSRAEVHGVISFYHDFNTQP”, the “soluble fraction (log2)” value is reported as -0.365.

With “HMNPAYTDSRMKTFLEELPVMKASLSQKHVTRFLVWQEYIGRHPDGYGKSQFFYHLKQNLVAAKG” the “soluble fraction (log2)” value was 0.0452.

In the case of “HMNPDTERIREFVAVSLKNRKVATSGEIQNMIVKQFKNFKLKSHGYSNMKSFLSSIDKIQLNSNGKYSLK”, the “soluble fraction (log2)” value is reported as 0.0764.

With “HMNPEDDLLKAIIMKYFSNAQVQVDKNVIEYLLKRVDRDYQNLYNILEKINILSLQRKSKITTHLIRDIM” the “soluble fraction (log2)” value was -0.624.

With “HMNPFLELTEREMDVLRLIAIGRNNQEIASELVISEKTVKTHITNIFSKLHFKDRTQAAAYAWQSGIVR” the “soluble fraction (log2)” value was -1.07.

In the case of “HMNPHGVAIIDVRKGKASTLRSLATSVRSLGEWDQLKIPIFNLESLTSLVLWHGLDAIVKEPESLQSNLIL”, the “soluble fraction (log2)” value is reported as -0.222.

In the case of “HMNPHIQFWSLLRRQPDYNSAYKDELKAMFVWQWSGEKTESLNEFYKTDPYRYKSMLMDMRNRAL”, the “soluble fraction (log2)” value is reported as -0.354.

For “HMNPIDAHVGARVRLRRMLIGMSQEKLGELLGVTFQQIQKYEKGANRIGASRLYEVSRVLDVPVQYFFDDM”, the “soluble fraction (log2)” value was -0.436.

For “HMNPLDGTSVHPESYEAAEKLLKKQGFSLEDISGGKLTGLSLTIKDYARLAKELEIGEITLRDIVKELEK”, the “soluble fraction (log2)” value was -0.747.

For “HMNPLHYKAAHWVREGLFDDLKSFVELETRINSIFEEKDRGDVFEIFIEGYRSFSKWRALVLRLA”, the “soluble fraction (log2)” value was -0.44.

With “HMNPNEVQIPDLVNKTEEEAEQILKDLKLKLVVKSEEYDENIEKGKIISQDPTYKENYKIKEHSEISVIIS” the “soluble fraction (log2)” value was 0.0816.

In the case of “HMNPNPFVNLSPRELEVLNLLFKGYGVLEISNELNIGQTTASTFKSRILKKTSTHSVVELIKLAEQYGFIP”, the “soluble fraction (log2)” value is reported as -0.847.
